Test system: K4 kissing-loop RNA reporter
Assay: apparent KD of K4 kissing-loop reporter; higher = weaker reporter binding
Conditions: Eterna round: R107
Experimental: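 RNA-MaP round R107: designed RNA switches with theophylline, tryptophan, arginine or FMN aptamers are transcribed on-chip within common flanks. They are titrated with a labelled K4 kissing-loop RNA reporter in RNA-MaP buffer (100 mM Tris pH 7.5, 80 mM KCl, 4 mM MgCl2), without ligand or with the indicated ligand. Median apparent KD per design.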

[1] = input ligand: theophylline 20 uM
[2] = input ligand: tryptophan 2.4 mM
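Further: bound reporter read as fluorescence of individual clusters on recovered sequencing chips by microscopy, with normalized cluster intensities fitted with a binding model.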

Row | Sequence | apparent KD of K4 kissing-loop reporter (input ligand: FMN 200 uM) [nM] | apparent KD of K4 kissing-loop reporter (input ligand: arginine 13.2 mM) [nM] | apparent KD of K4 kissing-loop reporter (input ligand: none) [nM] | apparent KD of K4 kissing-loop reporter [1] [nM] | apparent KD of K4 kissing-loop reporter [2] [nM]
1 | AGACUACCACACUGUCAAUAGACAGUGAGCUAGGAUAUGCUGAUAAGCAGAAGGAGUGAUGUUCCUAGGUAGUCAAUAAAAUAAU [FmnAX 13 G29] | 447 | 462 | 435 | 645 | 493
2 | GCCGUAGAUUGAAGGAGCGCCGCACAUGUCCCGCUUAGUGUAGUGAUGUUACAGUGUCAGCGGCAGGUAGGUCGCAAUCUACGGC | 85.8 | 183 | 225 | 123 | 218
3 | GCGUCUGUCGGAAGGAGCGCACUAUGGAGUGAUGUUCCAUGACCGCACAGCUUGCGGUCAGUGCAGGUAGGUCGCCGAUAGCGUU [Diestera] | 161 | 157 | 154 | 190 | 144
4 | CGCCGCAACUGAAGGAGCGCGCCAGUGAUGUUGGACGGCUUUGUCAAGGAAACUGCACCGGUGCAGGUAGGUCGCAGUUCGCGGU [Dilea] | 278 | 291 | 297 | 253 | 252
5 | CAUACGCAUGGAGGAUAUGAGAUUACUCGUAUCAUUUAAUAUUCUCAGUGAUGUUGAGAUUUGGGCUCAGAAGGCCAUGUGUAUG [Ex FMN B 16] | 393 | 261 | 290 | 324 | 288
6 | AUUUGUUUAUGUGAUACCAGACUUUGCAGUGAUGUUGCAUUUAUUUUAGAAGAAUAGUUUGUCCCUUGGCAGCACUAUGUAUUUA [JR_SSTheophyB_Sub006] | 44.9 | 98.2 | 49.3 | 80.7 | 41.5
7 | UGUUAUGUAUCAGGAUAUUAGUGUUGUUUGUUUAUGUUAGUGAUGUUGAUAUUUGUUUUAUGUAUUUAAGAAGGGAUUGAGAUGU [kkplmullin] | 369 | 339 | 310 | 359 | 258
8 | UGGUUCAAUACGGCCGCCACUGGUGAGUGAUGUUUACCGUCUAUAUCAUGUGUCGAGAGCGCUAUCAGGACCGGGUAGGGACCGU [theeternabot_exclusion_KL_Trp_B_42] | 673 | 396 | 721 | 837 | 458
9 | UGCAUGCUUAGAGUGAUGUUCUAAGAUGAUACCAGUGCUUUUUUGCACCCUUGGCAGCGUCUGAUUGCAUGCACGUCGAAAGACG | 288 | 287 | 279 | 266 | 289
10 | AAACUUGCAGUGAUGUUGCAAGUAGGUGAUACCAGCAUCGAAAGAUGCCCUUGGCAGCACCAUCACUGUAAGUAGGUGCUGUCAA [(H1)-(H2)-(T1)-(T2)-(H)'-(T)'_Design5] | 99.3 | 88.5 | 105 | 111 | 103
11 | UAGGCGGGAGAAGGAUAUCUGUGAAACCUGCUGCCCAAUAAGUGAUGUUUAUAAAGGAAGCGUCAUAGAGAAGGUCUAACAAGUA [theeternabot_sameState_KL_FMN_B_1] | 512 | 582 | 714 | 642 | 814
12 | CCAUUCAUUUACGAUACCAGUCUAAUAUAUUUAAUCAAAACCCUCGCCGAGUGAUGUUCGGACCCUUGGCAGCGUCUGCGACAGG [cyycmullin] | 354 | 333 | 334 | 399 | 227
13 | AGACGUUUGGGAAGGAGCGGAAUGUAAUACGGAACGCGUGGAGGUGCAGUGAUGUUGCAGAUCCAGGUAGGUCGCCCAAGGGACG [Esenraerve] | 94.1 | 122 | 99.1 | 137 | 91.1
14 | UGACUGGACUGAAGGAGCGCUAAACUCCUAGUGAUGUUAGGGAAACAAGACAAAGUCUUGAGGCAGGUAGGUCGCAGUCUAGUCU [FiskerMod 3 - Jieux - Same State - Arginine B] | 287 | 199 | 264 | 272 | 225
15 | CUAUAAGUGCCGAGUGAUGUUCGGCCAAUACGAGGACCGGUACGGCCGCCACUCGGUCAGUCGGUGCCCACCGGGCAUGGCUGAC [Ortima] | 186 | 237 | 205 | 213 | 113
16 | GCCCGGGCGAGUGAUGUUCGCCCACGUGAUACCAGUGCCAUCCAACACCCUUGGCAGCACGCGGGCAGUGAUGUUGCCCUUGUAU [Exclusion Theophylline A GF 4] | 115 | 110 | 122 | 138 | 111

Row | Sequence | apparent KD of K4 kissing-loop reporter (input ligand: FMN 200 uM) [nM] | apparent KD of K4 kissing-loop reporter (input ligand: arginine 13.2 mM) [nM] | apparent KD of K4 kissing-loop reporter (input ligand: none) [nM] | apparent KD of K4 kissing-loop reporter [1] [nM] | apparent KD of K4 kissing-loop reporter [2] [nM]
17 | CGUGUAAUGUGGAGAUUUGAAAAGGCGCAUCGAGGACCGGUACGGCCGCCACUCGCUACGAGCUAGUGAUGUUGGCUCGUUCGGA [theeternabot_sameState_KL_Trp_A_23] | 238 | 209 | 210 | 252 | 194
18 | UAUUGAUUGUCAGGAUAUCGUAAACGAGUGAUGUUCGUAAAUCGACGAUAGUCGAUAUGAUCUGAACGAGAAGGGACAUUAUUUA [JR_SSFMNB_Sub010] | 365 | 311 | 388 | 336 | 305
19 | UUGGCAGUGAUGUUGCCAGACAUCACCGAAGGAGCGGGCGAAAGCCCAGGUAGGUCGCGGUAGCGGAGUGAUUCUCCGCGAGGGC [Same State Arginine A GF 23] | 957 | 621 | 937 | 759 | 829
20 | UACGCUUACUUGCGCGGUCCGAUUAACGAUACCAGCGAAGAAGCCCGCCCUUGGCAGCGUUAUAGAGUGAUGUUCACGGAGAUUA [theeternabot_sameState_KL_Theo_A_12] | 1100 | 872 | 989 | 1070 | 874
21 | ACUGGAAUUGUACUCCAGUGAUGUUGGAGGCAGGAUAUCCAGUAAAGGAGAAGGGCCAUCGCGCUAUUUAGCCGCAGGCGGCUAA [Atrilazaed] | 251 | 130 | 126 | 136 | 131
22 | CCGGACACCUCGGAUACCAGCCUGAGUGAUGUUCAAGCUGAACUCUCUUAAUAGGUCACCGGCCCUUGGCAGCCGCAUCCUAAGC [theeternabot_exclusion_KL_Theo_B_46] | 375 | 269 | 353 | 310 | 313
23 | ACAUUAGGCACGGCCGCCACUGGAUUAAGAUCUUAAGUAUUAAUUAACAUGAGUGAUGUUCAUGCCAGGACCGGGUGACUACCAU [KL-SSTryp-B11] | 275 | 222 | 261 | 267 | 252
24 | CCAUCGCUAUUCGAUACCAGUCAUUUUUUAUUUUAUUUUUUUUUUGGAGUGAUGUUCCAAGACCCUUGGCAGCGAAUAGUGAUGG [whbob_SS_Theo_B_th78] | 119 | 130 | 113 | 139 | 106
25 | UAGUCAUACAGAGGAUAUCGUAUGAGUGAUGUUCAUACGAUAUAAUCUAAUUGUAUAGAUGUUCGACGAGAAGGCUGUAUGACUA [FMN B Ex t1a] | 116 | 84.5 | 94.9 | 91.3 | 92.6
26 | GGAUAGGACAGAGGAUAUGGGCUAGGCAAGAAUAACUUGUCUAGCAAAUCCAUGAGGAGUGAUGUUCCAGAAGGCUGUCCUAUCG [FmnBX 1 - #SwitchBubble #StraticStem #DoubleMagnetSystem] | 375 | 167 | 114 | 177 | 143
27 | AAACGUUGUUGCGAUACCAGCUGAUCGGAAACGAUCAUGCUGGAGUGAUGUUCCAGGAAAAGCCCUUGGCAGCGCAACGACGAAA [MAT - Same State Theophlline B - Mod of Eli - D30] | 276 | 134 | 228 | 296 | 179
28 | UCGCGUAAUGGAAGGAGCGGUGCCAGUGAUGUUGGAUACUGCGUGUAUUAGGUCGGAGCGCACCAGGUAGGUCGCCAUUUGGUGG [Tigedies] | 328 | 276 | 236 | 271 | 369
29 | AUCCAUAGUGAUGUUGUGAGCGGAGGCACCAAGGAUAUUGCCAGCCCAAGAAGGUGGGUCCCACACACCAGGCAUACAAGUCCGG [theeternabot_exclusion_KL_FMN_A_43] | 1040 | 845 | 1160 | 944 | 837
30 | AAACAACUUGACGAUACCAGCUUACUCGGCAAGCCAGUGAUGUUGGUGAAAAGGAGUCAAAGCCCUUGGCAGCGUCGAAGGUCUG [Raatarerin] | 271 | 240 | 304 | 119 | 258
31 | GAAGGUCAAAGACCUUCGUGCACAUCUGAUACCAGUCGCGAAAGCGACCCUUGGCAGCAGGGCAGUGAUGUUGCCAGUGCACAAA [Omei KL Theo A SS A v4] | 255 | 221 | 273 | 168 | 253
32 | AUGCGCAGCCUGCUUACGUAUGAGCCGGAAGGAGCGGCAGAAUUGCCAGGUAGGUCGCCGGCCCAGUGAUGUUGGGAUGGUGUGG [Atusqubela] | 279 | 167 | 343 | 419 | 264

From the supplement of paper PMC9170038
